Measured values published in publication PMC10521239 (Protein Science : A Publication of the Protein Society, 2023).

Target: HPC4 tagged human fIX without the gamma-carboxyglutamic (GLA) domain, wild type (Homo sapiens)
Assay: ELISA

Chain of HPC4 tagged human fIX without the gamma-carboxyglutamic (GLA) domain, wild type (Homo sapiens) (P00740 93-461): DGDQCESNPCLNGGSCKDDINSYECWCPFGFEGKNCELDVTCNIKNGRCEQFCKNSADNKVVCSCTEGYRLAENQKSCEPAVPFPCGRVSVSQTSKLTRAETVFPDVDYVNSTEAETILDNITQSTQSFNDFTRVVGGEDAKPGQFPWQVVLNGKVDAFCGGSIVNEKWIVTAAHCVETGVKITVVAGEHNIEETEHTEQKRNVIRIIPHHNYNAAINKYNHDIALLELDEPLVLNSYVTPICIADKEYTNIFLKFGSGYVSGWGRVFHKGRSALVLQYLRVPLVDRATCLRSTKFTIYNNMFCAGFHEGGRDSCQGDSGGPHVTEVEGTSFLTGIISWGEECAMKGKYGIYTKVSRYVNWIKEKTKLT

B1: anti-fIXa NN-8895 full-length mAb (antibody, V domains shown)
VH: EVQLVESGGGLVQPGRSLRLSCAASGFIFDDYAMHWVRQVPGKGLEWVSGISWNSDNIGYVDSVKGRFTISRDNAKNSLYLQMNSLRIEDTALYYCAKAFGSGSYYNGFDYWGQGALVTVSS
VL: DIQMTQSPSTLSASAGDRVTISCRASQSISSWLAWYQQKPGKAPKLLIYKASSLESGVPSRFSGSGSGTEFTLTISSLQPDDFATYYCQEYNSYIRTFGQGTKVEIK
- binding result: binds
